Key:
[1] = Biodistribution and whole body retention of 153Gd-labeled dendrimer-1B4M-Gd conjugates; format: in vivo, nude mice; settings: for cleared from the body within 15 min after injection / excretion from the body, rank among conjugates: mouse, in vivo
Experimental: Radioactive dendrimer conjugates used for biodistribution studies were prepared as follows. ^153GdCl3 containing no other stable isotope of Gd (III) was purchased from NEN DuPont (Boston, Mass.). Approximately 1,500 μg of each dendrimer (containing 2 μmol of 1B4M) was reacted with 1.11 MBq (30 μCi) of ^153Gd citrate (46 pmol) in 0.3 M citrate buffer at pH 5 for 30 min at room temperature. The preparation was then mixed with a 3-fold molar excess of non-radiolabeled Gd(III) citrate (6 μmol) to conjugate 1B4M to fully saturate the chelating groups with Gd(III). This reaction was incubated for 30 min before the addition of ethylenediaminetetraacetic acid (EDTA) and subsequent column purification. To remove any non-incorporated free metal, 10 μl of 0.5 M EDTA (Sigma, St. Louis, Mo.) was added to minimized formation of Gd(OH)3 precipitate. The product was purified using a PD-10 column (Pharmacia, Uppsala, Sweden), eluting with PBS, (pH 7.4). The radio-purity of each preparation was analyzed by size-exclusion HPLC using a TSK G3000SW column (TosoHaas, Philadelphia, Pa.; 0.1 M PBS; 0.01 M KCl; pH 7.4; 1 ml/min). DTPA (Sigma) was also labeled with ^153Gd in 0.3-M citrate buffer for 30 min at room temperature. The radiolabeling yields of all preparations ranged from 47% to 55%. The radio-purity of all preparations analyzed by size-exclusion HPLC was greater than 97%.
Seven groups of nude mice (n=4 in each group) were injected with 37 kBq (1 μCi)/200 μl of ^153Gd-labeled dendrimer-1B4M-Gd conjugates or ^153Gd-DTPA. The injected samples were added to non-radioactive preparations and the total gadolinium dose was adjusted to 0.02 mmol Gd/kg, 20% of the dose of Gd-[DTPA]-dimeglumine routinely used clinically. The mice were sacrificed 15 min after the injection of the ^153Gd-labeled preparations and biodistribution studies were performed. The data were expressed as the percentage of the injected dose per gram (% ID/g) of tissue. The carcasses of the mice were also counted to calculate the whole body retention (% ID).

kidneys of mice = experiment: Serial dynamic high-resolution MR imaging of the kidneys of mice; format: in vivo
Experimental: The mice were anesthetized with 1.15 mg of sodium pentobarbital (Dainabot, Osaka, Japan) and placed in the center of the coils. The fast spoiled gradient echo technique ([…] 71; flip angle 30°; scan time 3'07''; phase encoding steps 512×256; 2 number of excitations; slab thickness 16) with fat-suppression technique and serial 3D data acquisition was used to acquire images every 3.1 min from 0 (immediately after injection) to 12 min after injection of the contrast agents for all mice studied. The coronal images were reconstructed with 0.6-mm thick sections with a 0.3-mm overlap reconstruction. The field of view was 6×3 cm and the size of the matrix was 512×256. The reproducibility of the experiments (two mice in each group) was confirmed by repeating the experiments under the same conditions using a different 1.5-tesla superconductive MRI instrument (Signa Horizon, GE).

[2] = in vivo; cited from earlier work
[3] = Contrast-enhanced dynamic whole body 3D-micro-MRI of mice; format: in vivo, nude mice; settings: 0.03 mmol Gd/kg, all times up to 15 min
Experimental: To evaluate the whole body pharmacokinetics of the contrast agents, seven groups of 8-week-old female nude mice (n=4 in each group) (NCI, Frederick, Md.) were used to obtain contrast-enhanced dynamic 3D-micro-MR images. […] All images were obtained using the high-resolution wrist coil (GE) with a custom mouse holder using a clinical-grade 1.5-tesla superconductive magnet unit (Signa LX, General Electric Medical System, Milwaukee, Wis.). The mice were anesthetized with 1.15 mg of sodium pentobarbital (Dainabot, Osaka, Japan) and placed in the center of the coils. The fast spoiled gradient echo technique ([…] 19.4/4.2; flip angle 60°; scan time 1'40''; phase encoding steps 256×256; 3 number of excitations; slab thickness 12) with chemical fat-suppression technique and serial 3D data acquisition was used to acquire images every 2 min from 0 (immediately after injection) to 14 min after injection of the contrast agents for all mice studies. The coronal images for dynamic MRI were reconstructed with 2-mm section thickness without gap reconstruction. In addition, slice data was processed into 3D images with the maximum intensity […] (MIP) method (Advantage Windows, General Electric Medical System).

[4] = mice; cited from earlier work
COX-2 knock-out mice = experiment: Contrast-enhanced dynamic 3D-micro-MRI of mice with chronic renal failure; format: in vivo; settings: 0.03 mmol Gd/kg i.v., images over 14 min post-injection
Experimental: To determine if dendrimer-enhanced MR imaging according to the disclosure could detect chronic kidney failure and renal cysts, serial dynamic MR images of normal and 7 month old COX-2 knock-out mice (n=4) were obtained. The later mice have renal cysts and chronic renal failure. The contrast-enhanced dynamic MRI scans were obtained using the fast spoiled gradient echo technique (efgre3d; TR/TE 20.4/7.2; TI49; flip angle 30°; scan time 1′52″; phase encoding steps 512×256; 3 NEX; slab thickness 16) with fat-suppression technique following intravenous injection of 0.03 mmol Gd/kg G4-(1B4M-Gd)64. Serial multi-slice 3D data was obtained over a period of 14 min post-injection of the contrast agents for all mice studied. The width of the cortex and outer stripe of the outer medulla were measured. The combined width of the cortex and outer medulla measured by PAMAM-G4 enhanced MR imaging was much smaller in COX-2 knockout mice (left) than normal mice (right), and correlated with histological thickness (obtained at the time of sacrifice). […] These images show the thicker width of the cortex and outer medulla in the normal mice (FIG. 7a) in comparison to the COX-2 knockout mice (FIG. 7b). […] Thus, contrast-enhanced dynamic 3D-micro-MR imaging can be used to detect chronic renal failure and renal cysts.

DAB-Am-32-(Gd-1B4M)32 [DAB-G3]
cleared from the body within 15 min after injection [1]: Greater than 60 % ID
excretion from the body, rank among conjugates [1]: most rapidly excreted

CNC[C@H](O)[C@@H](O)[C@H](O)[C@H](O)CO.CNC[C@H](O)[C@@H](O)[C@H](O)[C@H](O)CO.O=C([O-])CN(CCN(CC(=O)[O-])CC(=O)O)CCN(CC(=O)[O-])CC(=O)O.[Gd+3] [Gd-[DTPA]-dimeglumine, Gd-DTPA-dimeglumine]
visualization of the proximal straight tubule of the kidney (kidneys of mice; double dose 0.06 mmol Gd/kg): not visualized
bright white band at the outer stripe of the outer medulla (kidneys of mice; high-resolution coronal images, dendrimers 0.03 mmol Gd/kg, Gd-[DTPA]-dimeglumine 0.03 or 0.06 mmol Gd/kg): not observed
MRI signal from the renal pelvis region (kidneys of mice; higher doses, e.g. 0.1 mmol Gd/kg): loss of signal

PAMAM-G2D-(Gd-1B4M)16
cleared from the body within 15 min after injection [1]: Greater than 60 % ID
excretion from the body, rank among conjugates [1]: most rapidly excreted

O=C([O-])CN(CCN(CC(=O)[O-])CC(=O)O)CCN(CC(=O)[O-])CC(=O)O.[153Gd+3] [Gd-DTPA, reference compound]
amount of 153Gd-labeled agent remaining in the blood ([1]; nude mice, 15 min after injection, 0.02 mmol Gd/kg): 2.7±0.1 % ID/g

DAB-Am16-(Gd-1B4M)16 [DAB-G2]
cleared from the body within 15 min after injection [1]: Greater than 60 % ID
excretion from the body, rank among conjugates [1]: most rapidly excreted

DAB-Am-64-(Gd-1B4M)64 [DAB-G4]
accumulation in the kidney vs PAMAM-G4D-(1B4M)64 [2]: less
accumulation in the liver vs PAMAM-G4D-(1B4M)64 [2]: significantly more

PAMAM-G4D-(Gd-1B4M)64
MRI signal intensity in the left ventricle of the heart [3]: highest
injected dose excreted during the first two days following administration [4]: 20 % ID
combined width of the cortex and outer medulla in COX-2 knockout mice vs normal mice by enhanced MR imaging (COX-2 knock-out mice): much smaller

From patent US6852842B2, “Methods for functional kidney imaging using small dendrimer contrast agents” (The United States of America as represented by the …, priority 2002, dated 2005)
